Data as given in US9068994.

Columns and labels:
[1] = target: Thyroid Stimulating Hormone (TSH) (UniProt P01215); assay: FRET competition, unlabelled Ab pre-bound to Alexa488 antigen; competitor: BHQ-labelled 414B
Luteinizing Hormone (LH) [2] = target: Luteinizing Hormone (LH) (UniProt P01215); assay: i-STAT sandwich cartridge, 0.4 mIU/L TSH plus LH; row Ab capture; detection Ab: 5409
[3] = target: Thyroid Stimulating Hormone (TSH) (UniProt P01215); assay: FRET competition, unlabelled Ab pre-bound to Alexa488 antigen; competitor: BHQ-labelled ME130
[4] = target: Follicle Stimulating Hormone (FSH) (UniProt P01215); assay: i-STAT sandwich cartridge, 0.4 mIU/L TSH plus FSH; row Ab capture; detection Ab: 5409
[5] = target: Thyroid Stimulating Hormone (TSH) (UniProt P01215); assay: i-STAT sandwich cartridge with TSH; row Ab on capture beads; detection conjugate: TSH Ab 544-ALP
[6] = target: Chorionic Gonadotropin (CG) (UniProt P01215); assay: FRET quenching titration, BHQ-10 antibody with Alexa Fluor 488 antigen, in solution
[7] = target: Thyroid Stimulating Hormone (TSH) (UniProt P01215); assay: as above
[8] = target: Follicle Stimulating Hormone (FSH) (UniProt P01215); assay: as above
Luteinizing Hormone (LH) [9] = target: Luteinizing Hormone (LH) (UniProt P01215); assay: as above
[10] = target: Thyroid Stimulating Hormone (TSH) (UniProt P01215); assay: i-STAT sandwich cartridge with TSH; row Ab on capture beads; detection conjugate: 5409-ALP
[11] = target: Thyroid Stimulating Hormone (TSH) (UniProt P01215); assay: i-STAT sandwich cartridge with TSH; row Ab on capture beads; detection conjugate: M4-ALP
[12] = target: Chorionic Gonadotropin (CG) (UniProt P01215); assay: i-STAT sandwich cartridge, 0.4 mIU/L TSH plus CG; row Ab capture; detection Ab: 5409
[13] = target: Thyroid Stimulating Hormone (TSH) (UniProt P01215); assay: FRET competition, unlabelled Ab pre-bound to Alexa488 antigen; competitor: BHQ-labelled M4
[14] = target: Thyroid Stimulating Hormone (TSH) (UniProt P01215); assay: FRET competition, unlabelled Ab pre-bound to Alexa488 antigen; competitor: BHQ-labelled 5409
[15] = target: Thyroid Stimulating Hormone (TSH) (UniProt P01215); assay: FRET competition, unlabelled Ab pre-bound to Alexa488 antigen; competitor: BHQ-labelled T25C
[16] = target: Thyroid Stimulating Hormone (TSH) (UniProt P01215); assay: FRET competition, unlabelled Ab pre-bound to Alexa488 antigen; competitor: BHQ-labelled TSH Ab 544
[17] = target: Thyroid Stimulating Hormone (TSH) (UniProt P01215); assay: i-STAT sandwich cartridge with TSH; row Ab on capture beads; detection conjugate: T25C-ALP
[18] = target: Chorionic Gonadotropin (CG) (UniProt P01215); assay: i-STAT sandwich cartridge, 0.4 mIU/L TSH plus CG; row Ab capture; detection Ab: ME130
[19] = target: Chorionic Gonadotropin (CG) (UniProt P01215); assay: i-STAT sandwich cartridge, 0.4 mIU/L TSH plus CG; row Ab capture; detection Ab: T25C
[20] = target: Follicle Stimulating Hormone (FSH) (UniProt P01215); assay: i-STAT sandwich cartridge, 0.4 mIU/L TSH plus FSH; row Ab capture; detection Ab: T25C
[21] = target: Thyroid Stimulating Hormone (TSH) (UniProt P01215); assay: i-STAT sandwich cartridge with TSH; row Ab on capture beads; detection conjugate: ME130-ALP
Luteinizing Hormone (LH) [22] = target: Luteinizing Hormone (LH) (UniProt P01215); assay: i-STAT sandwich cartridge, 0.4 mIU/L TSH plus LH; row Ab capture; detection Ab: T25C
Luteinizing Hormone (LH) [23] = target: Luteinizing Hormone (LH) (UniProt P01215); assay: i-STAT sandwich cartridge, 0.4 mIU/L TSH plus LH; row Ab capture; detection Ab: ME130
[24] = target: Follicle Stimulating Hormone (FSH) (UniProt P01215); assay: i-STAT sandwich cartridge, 0.4 mIU/L TSH plus FSH; row Ab capture; detection Ab: ME130
Luteinizing Hormone (LH) [25] = target: Luteinizing Hormone (LH) (UniProt P01215); assay: LH-detecting i-STAT cartridge (LH capture, 414B detection), polystyrene LH 5304 scavenger beads added
[26] = target: Thyroid Stimulating Hormone (TSH) (UniProt P01215); assay: i-STAT sandwich cartridge with TSH; row Ab on capture beads; detection conjugate: 414B-ALP
Luteinizing Hormone (LH) [27] = target: Luteinizing Hormone (LH) (UniProt P01215); assay: i-STAT sandwich cartridge, 0.4 mIU/L TSH plus LH; row Ab capture; detection Ab: TSH Ab 544
[28] = target: Follicle Stimulating Hormone (FSH) (UniProt P01215); assay: i-STAT sandwich cartridge, 0.4 mIU/L TSH plus FSH; row Ab capture; detection Ab: TSH Ab 544
[29] = target: Chorionic Gonadotropin (CG) (UniProt P01215); assay: i-STAT sandwich cartridge, 0.4 mIU/L TSH plus CG; row Ab capture; detection Ab: TSH Ab 544
[30] = target: Follicle Stimulating Hormone (FSH) (UniProt P01215); assay: i-STAT sandwich cartridge, 0.4 mIU/L TSH plus FSH; row Ab capture; detection Ab: 414B
Luteinizing Hormone (LH) [31] = target: Luteinizing Hormone (LH) (UniProt P01215); assay: i-STAT sandwich cartridge, 0.4 mIU/L TSH plus LH; row Ab capture; detection Ab: 414B
[32] = target: Chorionic Gonadotropin (CG) (UniProt P01215); assay: i-STAT sandwich cartridge, 0.4 mIU/L TSH plus CG; row Ab capture; detection Ab: 414B

Substance	relative fluorescence (relative (same pair = 1.0)) [1]	LH CR (%) (cross reactivity) (Luteinizing Hormone (LH) [2])	relative fluorescence (relative (same pair = 1.0)) [3]	FSH CR (%) (cross reactivity) [4]	electrochemical current (sandwich signal) [5] [nA]	Kd [6] [nM]	Kd [7] [nM]	Kd [8] [nM]	Kd (Luteinizing Hormone (LH) [9]) [nM]	electrochemical current (sandwich signal) [10] [nA]	electrochemical current (sandwich signal) [11] [nA]	CG CR (%) (cross reactivity) [12]	relative fluorescence (relative (same pair = 1.0)) [13]	relative fluorescence (relative (same pair = 1.0)) [14]	relative fluorescence (relative (same pair = 1.0)) [15]	relative fluorescence (relative (same pair = 1.0)) [16]	electrochemical current (sandwich signal) [17] [nA]	electrochemical current (sandwich signal) [21] [nA]	also measured
Biospacific Cat#5409 SPTNE-5 TSH mouse monoclonal antibody	0.88	–	0.78	–	1.41	500	0.1	1000	1000	–	15.2	–	0.9	1	0.78	0.93	34.6	53.6	CG CR (%) (cross reactivity) [18]: 0.78%; CG CR (%) (cross reactivity) [19]: 0.96%; FSH CR (%) (cross reactivity) [20]: 0.65%; LH CR (%) (cross reactivity) (Luteinizing Hormone (LH) [22]): 3.76%; LH CR (%) (cross reactivity) (Luteinizing Hormone (LH) [23]): 10.1%; FSH CR (%) (cross reactivity) [24]: 2.43%
Biospacific LH 5304 monoclonal antibody (mus beta-LH, Catalog #5304 SP-5)	–	–	–	–	–	–	–	–	–	–	–	–	–	–	–	–	–	–	signal left after scavenger beads (% of signal without beads) (Luteinizing Hormone (LH) [25]): 4%
Seradyn anti-alpha-LH monoclonal antibody Cat#MIT0414B, clone BB3.1.3	1	348	0.86	260	10.2	0.05	0.04	0.1	0.05	40.3	41.3	84.6	0.75	0.81	0.76	0.83	–	–	LH CR (%) (cross reactivity) (Luteinizing Hormone (LH) [27]): 467%; FSH CR (%) (cross reactivity) [28]: 219%; CG CR (%) (cross reactivity) [29]: 39.2%

The remaining substances from weak to strong by Kd [6], led by results:

relative fluorescence (relative (same pair = 1.0)) [1]	LH CR (%) (cross reactivity) (Luteinizing Hormone (LH) [2])	relative fluorescence (relative (same pair = 1.0)) [3]	FSH CR (%) (cross reactivity) [4]	electrochemical current (sandwich signal) [5] [nA]	Kd [6] [nM]	Kd [7] [nM]	Kd [8] [nM]	Kd (Luteinizing Hormone (LH) [9]) [nM]	electrochemical current (sandwich signal) [10] [nA]	electrochemical current (sandwich signal) [11] [nA]	CG CR (%) (cross reactivity) [12]	relative fluorescence (relative (same pair = 1.0)) [13]	relative fluorescence (relative (same pair = 1.0)) [14]	relative fluorescence (relative (same pair = 1.0)) [15]	relative fluorescence (relative (same pair = 1.0)) [16]	electrochemical current (sandwich signal) [17] [nA]	electrochemical current (sandwich signal) [21] [nA]	Substance	also measured
0.9	–	0.76	–	0	554	0.18	210	300	20.7	–	–	1	0.94	0.74	0.98	22.5	39.9	Fitzgerald 10C-CR2151M4 TSH mouse monoclonal antibody, clone 157155	–
0.89	–	0.72	–	–	210	1.31	1000	1000	7.98	0.11	–	0.92	0.96	0.71	1	22.4	34.9	TSH Ab 544 (Abbott Diagnostics Division) (antibody)	FSH CR (%) (cross reactivity) [30]: 7.15%; electrochemical current (sandwich signal) [26]: 25 nA; LH CR (%) (cross reactivity) (Luteinizing Hormone (LH) [31]): 11.8%; CG CR (%) (cross reactivity) [32]: 117%
0.99	11.1	1	3.9	10.8	45	0.04	70	54	54.7	50.5	11.8	0.77	0.82	0.88	0.82	0.1	–	AbCam ME-130 (ab9390) TSH mouse monoclonal antibody	–
0.97	9.89	0.97	6.25	0.83	40	0.08	300	35	49.7	40.9	13.7	0.92	0.95	1	0.97	–	0.68	Fitzgerald Cat#10-T25C TSH mouse monoclonal antibody, clone M94206	electrochemical current (sandwich signal) [26]: 0.82 nA
